# Measurements published in patent US20200347131A1 (SICHUAN KELUN BIOTECH BIOPHARMACEUTICAL, published 2020).
# T1: human LAG-3 (His tag) (human, UniProt P18627 23-450, limits assumed)
# T1 construct: also called LAG-3-His antigen; not shown: His tag
# T1 sequence (looked up): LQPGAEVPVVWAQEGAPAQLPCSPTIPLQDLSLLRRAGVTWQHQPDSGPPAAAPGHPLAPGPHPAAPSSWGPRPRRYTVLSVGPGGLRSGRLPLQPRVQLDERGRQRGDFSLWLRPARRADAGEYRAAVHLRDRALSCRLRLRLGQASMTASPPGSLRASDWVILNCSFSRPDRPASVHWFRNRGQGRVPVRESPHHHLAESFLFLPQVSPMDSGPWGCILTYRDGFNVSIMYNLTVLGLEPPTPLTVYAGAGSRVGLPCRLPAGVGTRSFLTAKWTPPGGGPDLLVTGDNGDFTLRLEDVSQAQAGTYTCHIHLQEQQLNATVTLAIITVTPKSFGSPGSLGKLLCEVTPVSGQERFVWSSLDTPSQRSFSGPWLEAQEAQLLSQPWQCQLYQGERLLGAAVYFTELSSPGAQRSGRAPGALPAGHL
# T2: human LAG-3 on CHO cells (CHO-hLAG-3) (human, UniProt P18627 23-525)
# T2 construct: whole, on cells; Cells prepared by Kelun Biotech Co., Ltd; also called CHO cells expressing human LAG-3
# T2 sequence (looked up): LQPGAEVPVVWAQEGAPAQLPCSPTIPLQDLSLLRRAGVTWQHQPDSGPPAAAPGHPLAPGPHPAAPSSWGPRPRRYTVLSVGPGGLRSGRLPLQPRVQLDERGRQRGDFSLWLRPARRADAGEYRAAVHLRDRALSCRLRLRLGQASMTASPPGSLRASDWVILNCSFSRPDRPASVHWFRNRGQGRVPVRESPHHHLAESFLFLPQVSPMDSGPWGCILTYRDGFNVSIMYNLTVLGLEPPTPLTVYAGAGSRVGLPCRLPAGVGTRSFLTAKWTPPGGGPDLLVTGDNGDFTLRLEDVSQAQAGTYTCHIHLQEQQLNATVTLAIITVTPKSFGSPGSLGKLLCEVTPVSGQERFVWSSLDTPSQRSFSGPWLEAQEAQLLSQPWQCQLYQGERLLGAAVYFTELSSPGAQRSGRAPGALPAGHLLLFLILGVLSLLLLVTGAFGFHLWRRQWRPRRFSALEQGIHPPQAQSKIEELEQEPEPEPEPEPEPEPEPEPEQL
# T3: human LAG-3 (Uniport entry No. P18627) (human, UniProt P18627 23-450, limits assumed)
# T3 sequence (looked up): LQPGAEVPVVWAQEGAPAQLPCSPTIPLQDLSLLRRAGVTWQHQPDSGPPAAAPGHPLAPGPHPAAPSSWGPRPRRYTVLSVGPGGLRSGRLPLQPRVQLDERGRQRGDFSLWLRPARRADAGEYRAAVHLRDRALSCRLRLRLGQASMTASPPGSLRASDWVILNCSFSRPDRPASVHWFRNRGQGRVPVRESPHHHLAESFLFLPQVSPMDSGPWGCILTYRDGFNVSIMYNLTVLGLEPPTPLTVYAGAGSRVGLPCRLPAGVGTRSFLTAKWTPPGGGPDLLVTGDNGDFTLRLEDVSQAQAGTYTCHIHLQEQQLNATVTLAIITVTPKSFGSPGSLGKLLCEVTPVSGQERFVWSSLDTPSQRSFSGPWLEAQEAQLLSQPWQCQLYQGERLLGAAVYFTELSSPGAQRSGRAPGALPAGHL
# How the values were obtained:
# [1] = biological target: T4, LAG-3-Tag1 of the LAG-3/MHC II kit (CISBIO, ADK000CLAPEF) (human, UniProt P18627 23-450); experiment: HTRF competition, antibody blocks the binding of LAG-3-Tag1 to MHC II-Tag2 (CISBIO kit)
# T4 construct: Kit reagent; The construct is not described
# Experimental: Anti-Tag1-Eu³⁺ is a donor of HTRF (Homogeneous Time-Resolved Fluorescence), and anti-Tag2-XL665 acts as a receptor for HTRF. When the two molecules are close to each other, the fluorescence energy is transferred from the donor to the acceptor, accompanied by appearance of a fluorescent signal at 650 nm.
# After mixing the anti-Tag1-Eu³⁺ and anti-Tag2-XL665 in equal volumes, each well was added with 10 μl, mixed well, sealed with a film, and incubated for 1 hour at room temperature.
# human LAG-3 (His tag) [2] = biological target: T1, human LAG-3 (His tag); experiment: BLI (ForteBio Octet), LAG-3 His on Ni-NTA sensor
# Experimental: (§1) The binding affinity constant of the purified murine monoclonal antibody #27 to the antigen was determined by Bio-Layer Interferometry (BLI) using the instrument of a PALL company's ForteBio Octet RED & QK system.
# human LAG-3 (His tag) [3] = biological target: T1, human LAG-3 (His tag); experiment: FACS competition, antibody blocks the binding of LAG-3-His (12 ug/mL) to MHC II positive A431 cells
# Experimental: Human epidermal cancer cell line A431 (purchased from Nanjing Cobioer Company) is an MHC II positive expression cell line. […] The method was also used to evaluate the biological activity of relevant antibodies.
# A431 cells were trypsinized, resuspended in PBS, and the cell density was adjusted to 5×10⁶ cells/mL, 100 μL/well. […] The cells were washed twice with pre-cooled PBS, resuspended in 100 µL of solution containing […] of PE anti-His, and incubated at 4° C. for 0.5 hours, washed twice with pre-cooled PBS, and resuspended in PBS.
# [4] = biological target: T5, cynomolgus monkey LAG-3 on CHO cells (CHO-cynoLAG-3) (cynomolgus monkey); experiment: flow cytometry, FITC-labelled antibody on CHO-cynoLAG-3 cells
# T5 construct: whole, on cells; Cells prepared by Kelun Biotech Co., Ltd
# Experimental: (§2) 5×10⁵ cells per tube of CHO-cynoLAG-3 and CHO-hLAG-3 cells were taken respectively. […] The dilutions were mixed with cells at a ratio of 1:1, and incubated for 30 minutes at room temperature, followed by washing 3 times with pre-cooled PBS and detection by flow cytometry (Benckman, model CytoFlex). The signal values were input into GraphPad Prism to calculate the EC₅₀ values.
# [5] = biological target: T2, human LAG-3 on CHO cells (CHO-hLAG-3); experiment: flow cytometry, FITC-labelled antibody on CHO-hLAG-3 cells
# Experimental: as §2
# [6] = biological target: T3, human LAG-3 (Uniport entry No. P18627); experiment: indirect ELISA on plate-coated human LAG-3 (0.1 ug/ml), HRP goat anti-mouse IgG detection
# human LAG-3 (His tag) [7] = biological target: T1, human LAG-3 (His tag); experiment: BLI (ForteBio Octet), LAG-3 His on Ni-NTA sensor, antibody 3.125-100 nM
# Experimental: as §1
Kd (human LAG-3 (His tag) [2]) [nM],koff (human LAG-3 (His tag) [2]) [s⁻¹],kon (human LAG-3 (His tag) [2]) [M⁻¹ s⁻¹],Binder,other results
0.546,5.17e-05,94700,"humanized antibody AB12T3 (antibody, human IgG4, kappa, V domains shown) VH: DVQLQESGPGLVKPSQTLSLTCTVTGYSITSFYSWHWIRQHPGKGLEWMGCIQYSGDTDSNPSLKSRITITRDTSENQLSLKLSSVTAADTAVYYCARSPYDSDPYYVMDYWGQGTLVTVSS VL: DIVMSQSPDSLAVSLGERATITCKSSQSLLYSGNQKNYLAWYQQKPGQPPTLLIYWASTRDSGVPDRLTGSGSGTDFTLTISSLQAEDVAVYYCQQYYAYPYTFGQGTKLEIKR",IC50 [1]: 9.45 µg/mL
0.365,2.28e-05,92400,"humanized antibody AB12T5 (antibody, human IgG4, kappa, V domains shown) VH: QVQLQESGPGLVKPSQTLSLTCTVSGYSITSFYSWHWIRQHPGKGLEWIGCIQYSGDTDSNPSLKSRVTISVDTSKNQFSLKLSSVTAADTAVYYCARSPYDSDPYYVMDYWGQGTSVTVSS VL: DIVMTQSPDSLAVSLGERATITCKSSQSLLYSGNQKNYLAWYQQKPGQPPKLLIYWASTRDSGVPDRFSGSGSGTDFTLTISSLQAEDVAVYYCQQYYAYPYTFGGGTKLEIKR",
0.359,2.36e-05,65800,"humanized antibody AB12T7 (antibody, human IgG4, kappa, V domains shown) VH: QVQLQESGPGLVKPSQTLSLTCTVSGYSITSFYSWSWIRQHPGKGLEWIGYIQYSGDTYYNPSLKSRVTISVDTSKNQFSLKLSSVTAADTAVYYCARSPYDSDPYYVMDYWGQGTLVTVSS VL: not shown",
0.258,3.09e-05,120000,"humanized antibody AB12T4 (antibody, human IgG4 S228P, kappa, V domains shown, also called FITC-AB12T4) VH: DVQLQESGPGLVKPSQTLSLTCTVTGYSITSFYSWHWIRQFPGKGLEWMGCIQYSGDTDSNPSLKSRITITRDTSENQLFLKLSSVTAADTATYYCARSPYDSDPYYVMDYWGQGTLVTVSS VL: DIVMSQSPDSLAVSLGERITMTCKSSQSLLYSGNQKNYLAWYQQKPGQSPTLLIYWASTRDSGVPDRLTGSGSGTDFTLTISSVQAEDVAVYYCQQYYAYPYTFGQGTKLEIKR",IC50 [1]: 6.7 µg/mL; IC50 (human LAG-3 (His tag) [3]): 12.7 nM; Maximum inhibition % (human LAG-3 (His tag) [3]): 89.3%; EC50 [4]: 803 nM; EC50 [5]: 12.8 nM
0.378,,,"humanized antibody AB12T6 (antibody, human IgG4, kappa, V domains shown) VH: DVQLQESGPGLVKPSQSLSLTCTVSGYSITSFYSWHWIRQHPGKGLEWMGCIQYSGDTYYNPSLKSRVTISVDTSKNQFSLKLSSVTAADTAVYYCARSPYDSDPYYVMDYWGQGTLVTVSS VL: DIVMSQSPDSLAVSLGERATITCKSSQSLLYSGNQKNYLAWYQQKPGQPPKLLIYWASTRDSGVPDRFSGSGSGTDFTLTISSLQAEDVAVYYCQQYYAYPYTFGGGTKLETKR",
,,,"reference antibody AB12T1 (BMS 986016) (antibody, human IgG4 S228P, kappa, V domains shown, also called positive control antibody AB; FITC-AB12T1) VH: QVQLQQWGAGLLKPSETLSLTCAVYGGSFSDYYWNWIRQPPGKGLEWIGEINHRGSTNSNPSLKSRVTLSLDTSKNQFSLKLRSVTAADTAVYYCAFGYSDYEYNWFDPWGQGTLVTVSS VL: EIVLTQSPATLSLSPGERATLSCRASQSISSYLAWYQQKPGQAPRLLIYDASNRATGIPARFSGSGSGTDFTLTISSLEPEDFAVYYCQQRSNWPLTFGQGTNLEIKR",EC50 [4]: 793 nM
0.319,3.86e-05,121000,"murine monoclonal antibody #27 (antibody, IgG4, V domains shown, Purified from hybridoma supernatant; also called murine antibody #27; monoclonal antibody produced by hybridoma cell line #27 (CCTCC NO.C2017183)) VH: DVHLQESGPDLVKPSQSLSLTCTVTGYSITSFYSWHWIRQFPGNKLEWMGCIQYSGDTDSNPSLKSRISITRDTSENQLFLHLNSVTTEDTATYYCARSPYDSDPYYVMDYWGQGTSVTVSS VL: DIVMSQSPSSLAVSVGEKITMTCKSSQSLLYSGNQKNYLAWYQQKPGQSPTLLIYWASTRDSGVPDRLTGSGSGTDFTLTISSVKAEDLAVYYCQQYYAYPYTFGGGTKLETK",EC50 (read off the curve) [6]: ~0.05 µg/mL; IC50 (human LAG-3 (His tag) [3]): 10.4 nM; Maximum inhibition % (human LAG-3 (His tag) [3]): 84.2%; Kd (human LAG-3 (His tag) [7]): 0.319 nM; koff (human LAG-3 (His tag) [7]): 3.86e-05 s⁻¹; kon (human LAG-3 (His tag) [7]): 121000 M⁻¹ s⁻¹
0.574,4.97e-05,100000,"human-mouse chimeric antibody AB12T2 (antibody, human IgG4 S228P, kappa, V domains shown) VH: DVHLQESGPDLVKPSQSLSLTCTVTGYSITSFYSWHWIRQFPGNKLEWMGCIQYSGDTDSNPSLKSRISITRDTSENQLFLHLNSVTTEDTATYYCARSPYDSDPYYVMDYWGQGTSVTVSS VL: DIVMSQSPSSLAVSVGEKITMTCKSSQSLLYSGNQKNYLAWYQQKPGQSPTLLIYWASTRDSGVPDRLTGSGSGTDFTLTISSVKAEDLAVYYCQQYYAYPYTFGGGTKLETKR",
